Test results reported in patent US20220185900A1 (Regeneron, published 2022).

T1: Macaca fascicularis (mf) RET.mmh (Macaca fascicularis)
T1 construct: also called monkey RET
T1 chain: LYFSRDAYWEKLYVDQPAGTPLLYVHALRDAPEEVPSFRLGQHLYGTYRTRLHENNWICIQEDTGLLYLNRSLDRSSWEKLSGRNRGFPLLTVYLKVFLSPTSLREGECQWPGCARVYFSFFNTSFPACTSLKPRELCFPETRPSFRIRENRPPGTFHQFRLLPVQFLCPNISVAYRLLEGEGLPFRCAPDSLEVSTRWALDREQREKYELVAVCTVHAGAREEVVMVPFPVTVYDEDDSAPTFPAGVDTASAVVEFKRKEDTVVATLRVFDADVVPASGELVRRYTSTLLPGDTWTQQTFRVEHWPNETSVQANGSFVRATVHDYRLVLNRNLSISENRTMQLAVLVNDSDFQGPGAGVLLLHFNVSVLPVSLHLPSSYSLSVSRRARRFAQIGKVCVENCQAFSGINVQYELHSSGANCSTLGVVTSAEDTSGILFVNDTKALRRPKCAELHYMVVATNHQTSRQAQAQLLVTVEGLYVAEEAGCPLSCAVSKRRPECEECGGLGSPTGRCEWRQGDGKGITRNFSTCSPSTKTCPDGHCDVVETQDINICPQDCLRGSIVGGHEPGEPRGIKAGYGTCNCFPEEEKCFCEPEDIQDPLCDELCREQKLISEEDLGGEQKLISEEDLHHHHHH


Key:
[1] = target: T1, Macaca fascicularis (mf) RET.mmh; assay: SPR Biacore T200, mAb capture, 37 C
Protocol: (§1) Binding affinities and kinetic constants of human anti-RET antibodies were determined by surface plasmon resonance (Biacore T200) at […] (Tables 2-3). […] Binding equilibrium dissociation constants (KD) and dissociative half-lives (t_{1/2}) were calculated from the kinetic rate constants as: KD [M]=kd/kₐ; and t_{1/2}(min)=(ln2/(60*kd). Calculations were performed using BiacoreT200 evaluation software v1.0.

[2] = target: T2, hRET.mmh (human, UniProt P07949 29-635, biotinylated in the ELISA of Example 4 (biot-hRET.mmh); not in the SPR of Example 3); assay: SPR Biacore T200, mAb capture, 37 C
T2 construct: also called biot-hRET.mmh; soluble monomeric human RET
Protocol: as §1

[3] = target: T3, hRET.mFc (human); assay: SPR Biacore T200, mAb capture, 37 C
T3 construct: also called dimeric human RET
Protocol: as §1

[4] = target: T2, hRET.mmh; assay: competition sandwich ELISA: 1 nM biot-hRET.mmh + antibody, plate-coated GDNF/GFRα1 co-complex
Protocol: The ability of anti-RET antibodies to block the binding of human RET to pre-complexed plate bound GDNF:GFRα1 was assessed using a competition sandwich ELISA.
Antibody-RET mixtures were incubated for 1 hour at RT and then transferred to microtiter plates previously coated with the hGDNF/hGFRα1 co-complex. Binding was allowed to proceed for 1 hr at RT followed by extensive washing. […] Plates were read at 450 nm and data analysis used a sigmoidal dose-response model within Prism™ software.
The absorbance values of the wells containing the highest concentration for each antibody were used to determine the blocking percent at maximum concentration antibody tested.

[5] = target: T1, Macaca fascicularis (mf) RET.mmh; assay: SPR Biacore T200, mAb capture, 25 C
Protocol: as §1

[6] = target: T2, hRET.mmh; assay: SPR Biacore T200, mAb capture, 25 C
Protocol: as §1

[7] = target: T3, hRET.mFc; assay: SPR Biacore T200, mAb capture, 25 C
Protocol: as §1

| Binder | Kd [1] [nM] | koff [1] [s⁻¹] | kon [1] [M⁻¹ s⁻¹] | t½ [1] [min] | Kd [2] [nM] | koff [2] [s⁻¹] | kon [2] [M⁻¹ s⁻¹] | t½ [2] [min] | Kd [3] [nM] | koff [3] [s⁻¹] | kon [3] [M⁻¹ s⁻¹] | t½ [3] [min] | % Max Blocking [4] [%] | Kd [5] [nM] | koff [5] [s⁻¹] | kon [5] [M⁻¹ s⁻¹] | t½ [5] [min] | Kd [6] [nM] | koff [6] [s⁻¹] | kon [6] [M⁻¹ s⁻¹] | further results |
| --- | --- | --- | --- | --- | --- | --- | --- | --- | --- | --- | --- | --- | --- | --- | --- | --- | --- | --- | --- | --- | --- |
| H4H8056P (antibody, human IgG4, V domains shown, human IgG4 Fc (H4H prefix)) VH: QVQLVESGGGVVQPGRSLRLSCAASGFTFRNYGMHWVRQAPGKGLEWVAVKRYDGSDEYFVDSVKGRFTISRDNSKNTLFLQMNSLRVDDTAVYYCARETPITGTTLDYWGQGTLVTVSS VL: DIQMTQSPSSLSASVGDRVTITCRTSQSITNYLNWYQQKPGKAPKLLIYAASRSQSGVPSRFSGSGSGTDFTLTISSLQPEDFATYYCQQSYSTPLTFGGGTKVEIK | 10.3 | 0.00313 | 303000 | 4 | 8.88 | 0.00289 | 326000 | 4 | 5.62 | 0.00128 | 227000 | 9 | 73 | 2.69 | 0.000583 | 216000 | 20 | 2.56 | 0.000539 | 211000 | t½ [6]: 21 min; Kd [7]: 1.47 nM; koff [7]: 0.000272 s⁻¹; kon [7]: 185000 M⁻¹ s⁻¹; t½ [7]: 42 min |
| H4H8058P (antibody, human IgG4, V domains shown, human IgG4 Fc (H4H prefix)) VH: QVQLVESGGGVGQPGRSLRLSCVASGFTFRNYGMHWVRQAPGKGLDWVAIIGYDGSKEYNVDSVKGRFTISRDNSKNTLYLQMNSLGAEDTAIYYCARESPITGTTFDYWGQGTLVTVSS VL: DIQMTQSPPSLSASVGDRVTITCRASQSIGNYLNWYQQKPGKAPKILIYAASRLQSGVPSRFSGSGSGTDFTLTISSLQPEDFATYYCQQSYSTPLTFGGGTKVEIK | 4.16 | 0.00226 | 543000 | 5 | 4.18 | 0.00221 | 528000 | 5 | 2.18 | 0.00121 | 552000 | 10 | 93 | 2.35 | 0.00054 | 230000 | 21 | 2.09 | 0.000518 | 248000 | IC50 [4]: 0.25 nM; t½ [6]: 22 min; Kd [7]: 1.1 nM; koff [7]: 0.000259 s⁻¹; kon [7]: 236000 M⁻¹ s⁻¹; t½ [7]: 45 min |
| H4H8060P (antibody, human IgG4, V domains shown, human IgG4 Fc (H4H prefix)) VH: QVTLKESGPVLVKPTETLTLTCTVSGFSLSSARMGVSWIRQPPGKALEWLAHIFSTDEKSYSTSLKSRLSISKDTSLSQVVLIMTNMDPVDTATYYCARRTTMAPYYYYYGMDVWGHGTTVTVSS VL: AIQMTQSPASLSASVGDRVTITCRASQGIRNDLGWYQQKPGKAPKLLISAASSLQSGVPSRFSGSGSGTDFTLTISSLQPEDFATYYCLQDYKYPWTFGQGTKVEIK | 1.88 | 0.00209 | 1.12e+06 | 6 | 1.41 | 0.00157 | 1.11e+06 | 7 | 0.558 | 0.000592 | 1.06e+06 | 19 | 95 | 0.523 | 0.000393 | 751000 | 29 | 0.409 | 0.000311 | 761000 | IC50 [4]: < 0.25 nM; t½ [6]: 37 min; Kd [7]: 0.179 nM; koff [7]: 0.000149 s⁻¹; kon [7]: 827000 M⁻¹ s⁻¹; t½ [7]: 78 min |

More lines, in order of falling Kd [1], values ahead:

| Kd [1] [nM] | koff [1] [s⁻¹] | kon [1] [M⁻¹ s⁻¹] | t½ [1] [min] | Kd [2] [nM] | koff [2] [s⁻¹] | kon [2] [M⁻¹ s⁻¹] | t½ [2] [min] | Kd [3] [nM] | koff [3] [s⁻¹] | kon [3] [M⁻¹ s⁻¹] | t½ [3] [min] | % Max Blocking [4] [%] | Kd [5] [nM] | koff [5] [s⁻¹] | kon [5] [M⁻¹ s⁻¹] | t½ [5] [min] | Kd [6] [nM] | koff [6] [s⁻¹] | kon [6] [M⁻¹ s⁻¹] | Binder | further results |
| --- | --- | --- | --- | --- | --- | --- | --- | --- | --- | --- | --- | --- | --- | --- | --- | --- | --- | --- | --- | --- | --- |
| 7.04 | 0.00114 | 161000 | 10 | 3.79 | 0.000896 | 236000 | 13 | 1.04 | 0.000312 | 300000 | 37 | 72 | 2.32 | 0.000272 | 117000 | 43 | 1.41 | 0.000219 | 156000 | H4H8071P (antibody, human IgG4, V domains shown, human IgG4 Fc (H4H prefix)) VH: EVQLVESGGGLVQPGGSLRLSCAASGFTFTTYFMSWVRQAPGKGLEWVSGISGSGTSTFYVDSMKGRFTISRDNSKNTLYLQMNSLRVEDTAVYFCAKENTYGHFDFWGQGTLVTVSS VL: DIQLTQSPSFLSASVGDRVTITCWASQDISSHLAWYQQKPGKAPKVLIYDASTLQSGVPSRISGSGSGTEFTLTISSLQPEDFAAYYCQQLDGYPYTFGQGTKLEIK | IC50 [4]: 0.36 nM; t½ [6]: 53 min; Kd [7]: 0.89 nM; koff [7]: 0.000179 s⁻¹; kon [7]: 200000 M⁻¹ s⁻¹; t½ [7]: 65 min |
| 6.31 | 0.00428 | 678000 | 3 | 2.65 | 0.00181 | 682000 | 6 | 2.4 | 0.00088 | 366000 | 13 | 97 | 1.46 | 0.000733 | 501000 | 16 | 0.733 | 0.00037 | 505000 | H4H8062P (antibody, human IgG4, V domains shown, human IgG4 Fc (H4H prefix)) VH: EVQLVESGGGLVQPGGSLRLSCSVSGFIFKNYAMRWVRQAPGKGLEWVSGISGSGGITYYADSVRGRVTISRDNSKNTLDLQMTNLRAEDTAVYYCAKAEYSSSGAYFDYWGQGTLVTVSS VL: DIQMTQSPSSLSASVGDRVTITCRASQSIHNYLNWYLQRPGKAPKLLVYAASSLQSGVPSRFSGRGSGTDFTLTISSLQPEDFATYYCQQSYSAPYSFGQGTKLEIK | IC50 [4]: < 0.25 nM; t½ [6]: 31 min; Kd [7]: 0.49 nM; koff [7]: 0.00022 s⁻¹; kon [7]: 400000 M⁻¹ s⁻¹; t½ [7]: 53 min |
| 4.84 | 0.0014 | 289000 | 8 | 4.31 | 0.00136 | 315000 | 9 | 2.15 | 0.000675 | 314000 | 17 | 95 | 1.54 | 0.000327 | 212000 | 35 | 1.51 | 0.000338 | 224000 | H4H8076P (antibody, human IgG4, V domains shown, human IgG4 Fc (H4H prefix)) VH: QVQLQQSGPGLVKPSQTLSLTCAISGDSVSSNSVAWNWIRQSPSRGLEWLGRTYYRSNWYNTYAVSVKSRITIDPDTSKNQFSLQLNSVTPEDTALYYCARGHRYSGSYFDYWGQGTLVTVSS VL: DIQMTQSPSSLSASVGDRVTITCRASQNINSYFNWYQQKPGKAPKLLIYAASSLQSGVPSRFSGGGSGTDFTLTISSLQPEDFATYYCQQTYTIPWTFGQGTKVEIK | IC50 [4]: < 0.25 nM; t½ [6]: 34 min; Kd [7]: 0.686 nM; koff [7]: 0.000171 s⁻¹; kon [7]: 250000 M⁻¹ s⁻¹; t½ [7]: 68 min |
| 1.57 | 0.00131 | 836000 | 9 | 0.968 | 0.00123 | 1.27e+06 | 9 | 0.349 | 0.000441 | 1.26e+06 | 26 | 92 | 0.424 | 0.000272 | 641000 | 42 | 0.27 | 0.000242 | 896000 | H4H8087P (antibody, human IgG4, V domains shown, human IgG4 Fc (H4H prefix)) VH: QVQLVESGGGVVQPGRSLRLSCAASGFSFSSYGMHWVRQAPGKGLEWVAVMWYDGSNEYYADSVKGRFIISRDNSKSTLYLEMNSLRAEDTALYYCAREDWDEGYYYGMDVWGQGTTVTVSS VL: DIQMTQSPSSLFASVGDRVTITCRASQDIRYDLGWYQQKPGKAPKRLIYASSILESGVPSRFSGSGSGTEYTLTISTLQSEDFAIYYCLQHNSFPWTFGQGTKVEIK | IC50 [4]: < 0.25 nM; t½ [6]: 48 min; Kd [7]: 0.087 nM; koff [7]: 0.000107 s⁻¹; kon [7]: 1.22e+06 M⁻¹ s⁻¹; t½ [7]: 108 min |
